Results: US20240116985A1 (published 2024)
Starred links: 1 amine or outer side, 2 acyl side, 3 side chain; linkers in the order of their positions; H or OH if unused. Positions of bridges follow the written chain, without caps; N, C: chain ends. Non-standard residues stand in square brackets, D forms with d. Primed or numbered codes have the meaning given here. SeN″ = (S)-5-(((allyloxy)carbonyl)(methyl)amino)-2-amino-2-methylpentanoic acid (stapling residue), C=CCOC(=O)N(C)CCC[C@](C)(N[*:1])C(=O)[*:2]; B5(4) = 2,2-bis(4-pentenyl)glycine = 2-amino-2-(pent-4-en-1-yl)hept-6-enoic acid (stitching residue), C=CCCCC(CCCC=C)(N[*:1])C(=O)[*:2]; B5(20) = 2-amino-2-(pent-4-en-1-yl)hept-6-enoic acid = bis(4-pentenyl)glycine, stitching residue, C=CCCCC(CCCC=C)(N[*:1])C(=O)[*:2]; B5(21) = 2-amino-2-(pent-4-en-1-yl)hept-6-enoic acid, bis(4-pentenyl)glycine (stitching residue), C=CCCCC(CCCC=C)(N[*:1])C(=O)[*:2]; SeN = (S)-5-(((allyloxy)carbonyl)(methyl)amino)-2-amino-2-methylpentanoic acid, C=CCOC(=O)N(C)CCC[C@](C)(N[*:1])C(=O)[*:2]; RdN = (R)-4-(((allyloxy)carbonyl)(methyl)amino)-2-amino-2-methylbutanoic acid, C=CCOC(=O)N(C)CC[C@@](C)(N[*:1])C(=O)[*:2]; B5 = 2-amino-2-(pent-4-en-1-yl)hept-6-enoic acid, C=CCCCC(CCCC=C)(N[*:1])C(=O)[*:2]; Phe(3-CF3) = N[C@@H](Cc1cccc(C(F)(F)F)c1)C(=O)O; Phe(3,5-F2) = N[C@@H](Cc1cc(F)cc(F)c1)C(=O)O; S7 = C[C@@](CCCCCC=[*:3])(N[*:1])C(=O)[*:2]; Phe(3-F) = N[C@@H](Cc1cccc(F)c1)C(=O)O; Phe(4-F) = N[C@@H](Cc1ccc(F)cc1)C(=O)O; αAllylPro = C=CC[C@@]1(C(=O)O)CCCN1; S8 = C=CCCCCCC[C@](C)(N)C(=O)O

T1: full-length beta-Catenin (Uniprot ID P35222) (Homo sapiens (Human), UniProt P35222 2-781)
T1 construct: Used full-length in both the FP and the AlphaScreen assay; also called B-Catenin; bCat
T1 sequence: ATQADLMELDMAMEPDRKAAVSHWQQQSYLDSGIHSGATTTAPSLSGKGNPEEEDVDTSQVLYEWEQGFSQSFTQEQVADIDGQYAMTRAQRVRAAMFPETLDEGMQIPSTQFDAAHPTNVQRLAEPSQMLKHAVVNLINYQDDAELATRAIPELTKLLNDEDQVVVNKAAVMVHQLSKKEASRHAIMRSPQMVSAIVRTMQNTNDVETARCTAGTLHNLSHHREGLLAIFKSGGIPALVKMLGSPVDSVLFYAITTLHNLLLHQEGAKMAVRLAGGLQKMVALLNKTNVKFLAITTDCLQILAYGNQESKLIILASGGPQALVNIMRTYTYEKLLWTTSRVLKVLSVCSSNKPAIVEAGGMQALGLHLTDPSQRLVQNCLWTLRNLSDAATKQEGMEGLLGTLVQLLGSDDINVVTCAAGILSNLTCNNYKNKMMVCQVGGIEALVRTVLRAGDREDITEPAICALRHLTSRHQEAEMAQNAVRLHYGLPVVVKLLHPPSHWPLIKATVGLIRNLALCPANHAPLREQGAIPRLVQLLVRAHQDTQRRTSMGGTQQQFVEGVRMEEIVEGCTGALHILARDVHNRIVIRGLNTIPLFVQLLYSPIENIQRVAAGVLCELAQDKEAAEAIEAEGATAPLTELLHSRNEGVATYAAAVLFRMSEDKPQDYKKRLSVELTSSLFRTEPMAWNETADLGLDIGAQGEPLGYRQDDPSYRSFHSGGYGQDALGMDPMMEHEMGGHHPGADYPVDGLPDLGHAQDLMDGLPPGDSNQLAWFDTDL

T2: beta-Catenin (full-length, Uniprot ID P35222) (Homo sapiens (Human), UniProt P35222 1-781)
T2 construct: also called bCat; B-Catenin
T2 sequence: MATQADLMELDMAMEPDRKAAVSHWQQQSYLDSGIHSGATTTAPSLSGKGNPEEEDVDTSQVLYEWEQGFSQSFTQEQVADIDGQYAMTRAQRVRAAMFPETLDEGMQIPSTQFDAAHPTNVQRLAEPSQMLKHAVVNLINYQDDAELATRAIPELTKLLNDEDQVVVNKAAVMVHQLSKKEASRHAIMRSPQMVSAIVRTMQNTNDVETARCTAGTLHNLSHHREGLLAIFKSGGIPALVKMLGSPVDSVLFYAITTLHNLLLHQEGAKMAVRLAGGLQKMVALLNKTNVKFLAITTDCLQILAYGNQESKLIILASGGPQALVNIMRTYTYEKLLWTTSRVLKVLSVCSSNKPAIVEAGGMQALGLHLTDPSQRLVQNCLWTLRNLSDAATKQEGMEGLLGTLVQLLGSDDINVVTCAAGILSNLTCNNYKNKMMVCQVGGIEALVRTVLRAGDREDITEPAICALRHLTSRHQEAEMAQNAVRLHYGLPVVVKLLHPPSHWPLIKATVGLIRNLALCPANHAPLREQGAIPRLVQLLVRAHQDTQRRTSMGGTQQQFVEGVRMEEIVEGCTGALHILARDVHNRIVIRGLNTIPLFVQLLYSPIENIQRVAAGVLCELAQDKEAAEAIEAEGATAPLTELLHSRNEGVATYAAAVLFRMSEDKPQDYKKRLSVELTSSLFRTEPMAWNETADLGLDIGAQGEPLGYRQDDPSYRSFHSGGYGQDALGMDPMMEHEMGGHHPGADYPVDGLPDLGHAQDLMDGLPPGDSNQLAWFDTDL

B1: I-67 (peptide)
peptide: Ac-ADI[RdN]DEAAFQ[S7]FWH-NH2
modifications: staple 4-11
notes: Stapled peptide; also called Ac-Ala-Asp-Ile-RdN-Asp-Glu-Ala-Ala-Phe-Gln-S7-Phe-Trp-His-NH2
B2: I-66 (peptide)
peptide: Ac-ADI[RdN]DEAAFQ[S7]FWH-NH2
modifications: staple 4-11; not fully specified
notes: as for B1
B3: I-53 (peptide)
peptide: Ac-[αAllylPro]DA[B5(21)]DDAAFV[SeN″]FWQ-NH2
modifications: staple 1-4, 4-11; also: earlier-eluting HPLC isomer, E/Z not given here
notes: Stapled (stitched) peptide; also called Ac-PL3-Asp-Ala-B5-Asp-Asp-Ala-Ala-Phe-Val-SeN-Phe-Trp-Gln-NH2
B4: I-52 (peptide)
peptide: Ac-[αAllylPro]DA[B5(20)]DDAAFV[S8]FWQ-NH2
modifications: staple 1-4, 4-11
notes: Stapled (stitched) peptide; also called Ac-PL3-Asp-Ala-B5-Asp-Asp-Ala-Ala-Phe-Val-S8-Phe-Trp-Gln-NH2
B5: I-54 (peptide)
peptide: Ac-[αAllylPro]DA[B5(21)]DDAAFV[SeN]FWQ-NH2
modifications: staple 1-4, 4-11
notes: as for B3
B6: I-64 (peptide)
peptide: Ac-ADI[RdN]DDAAFQ[S7]FWH-NH2
modifications: staple 4-11; not fully specified
notes: Stapled peptide; also called Ac-Ala-Asp-Ile-RdN-Asp-Asp-Ala-Ala-Phe-Gln-S7-Phe-Trp-His-NH2
B7: I-219: Ac-PL3-Asp-Ala-B5-Asp-Glu-Ala-Ala-35FF-Val-S8-Phe-Trp-Gln-NH2 (peptide)
peptide: Ac-[αAllylPro]DA[B5(4)]DEAA[Phe(3,5-F2)]V[S8]FWQ-NH2
modifications: staple 1-4, 4-11
notes: Stapled (stitched) peptide
B8: I-262: Ac-PL3-Asp-Ala-B5-Asp-Asp-Ala-Ala-Phe-Val-S8-34FF-Trp-Gln-NH2 (peptide)
peptide: XDAXDDAAFVXFWQ
modifications: not fully specified; N-terminal Ac; PL3 at position 1; B5 at position 4; S8 at position 11; 34FF at position 12; C-terminal NH2; stapled by olefin metathesis (PL3-B5 and B5-S8)
notes: It is the earlier-eluting isomer composition
B9: I-263: Ac-PL3-Asp-Ala-B5-Asp-Asp-Ala-Ala-Phe-Val-S8-34FF-Trp-Gln-NH2 (peptide)
peptide: XDAXDDAAFVXFWQ
modifications: not fully specified; N-terminal Ac; PL3 at position 1; B5 at position 4; S8 at position 11; 34FF at position 12; C-terminal NH2; stapled by olefin metathesis (PL3-B5 and B5-S8)
notes: It is the later-eluting isomer composition
B10: I-264: Ac-PL3-Asp-Ala-B5-Asp-Asp-Ala-Ala-3FF-Val-S8-Phe-Trp-Gln-NH2 (peptide)
peptide: Ac-[αAllylPro]DA[B5(4)]DDAA[Phe(3-F)]V[S8]FWQ-NH2
modifications: staple 1-4, 4-11; not fully specified; printed as Ac-PL3-Asp-Ala-B5-Asp-Asp-Ala-Ala-3FF-Val-S8-Phe-Trp-Gln-NH2
notes: as for B8
B11: I-254: Ac-PL3-Asp-Ala-B5-Asp-Asp-Ala-Ala-Phe-Val-S8-4F3MeF-Trp-Gln-NH2 (peptide)
peptide: XDAXDDAAFVXFWQ
modifications: not fully specified; N-terminal Ac; PL3 at position 1; B5 at position 4; S8 at position 11; 4F3MeF at position 12; C-terminal NH2; stapled by olefin metathesis (PL3-B5 and B5-S8)
notes: These are separate isomer compositions
B12: I-261: Ac-PL3-Asp-Ala-B5-Asp-Asp-Ala-Ala-Phe-Val-S8-4FF-Trp-Gln-NH2 (peptide)
peptide: Ac-[αAllylPro]DA[B5(4)]DDAAFV[S8][Phe(4-F)]WQ-NH2
modifications: staple 1-4, 4-11
notes: Stapled peptide
B13: I-260: Ac-PL3-Asp-Ala-B5-Asp-Asp-Ala-Ala-Phe-Val-S8-3FF-Trp-Gln-NH2 (peptide)
peptide: Ac-[αAllylPro]DA[B5(4)]DDAAFV[S8][Phe(3-F)]WQ-NH2
modifications: staple 1-4, 4-11
notes: Stapled peptide
B14: I-250: Ac-PL3-Asp-Ala-B5-Asp-Asp-Ala-Ala-Phe-Val-S8-3F3MeF-Trp-Gln-NH2 (peptide)
peptide: Ac-[αAllylPro]DA[B5]DDAAFV[S8][Phe(3-CF3)]WQ-NH2
modifications: staple 1-4, 4-11
notes: as for B11

What follows are binders tested against T1, full-length beta-Catenin (Uniprot ID …) (assay: AlphaScreen competition; full-length beta-catenin, biotin-TCF4(10-53) probe).
Experimental: Equal volume of the titrated peptide was added to the plate and incubated for 15 minutes at 20° C. Then 4 uL of donor and 4 uL acceptor beads at 10 ug/mL were added to the plate, for a 16 uL reaction pool and protected from light for 60 minutes at 20° C. prior to read. Reads were performed on a CLARIOstar plate reader (BMG Labtech) in duplicate, and data were fitted to a 1:1 binding model with hill slope using an in-house script. All provided concentrations are final concentrations.

Row | Binder | EC50
1 | B1 | 0.154 µM
2 | B2 | 0.175 µM
3 | B3 | 1.14 µM
4 | B4 | 0.158 µM
5 | B5 | 0.482 µM

What follows are binders tested against T1, full-length beta-Catenin (Uniprot ID …) (assay: fluorescence polarization competition; full-length beta-catenin, 5FAM-TCF4(10-53) probe).
Experimental: (§1) The plate was incubated protected from light for 60 minutes at 20° C. prior to read. Reads were performed on a CLARIOstar plate reader (BMG Labtech) in duplicate, and data were fitted to a 1:1 binding model with hill slope using an in-house script. All provided concentrations are final concentrations.

Row | Binder | EC50
6 | B6 | 4.25 µM
7 | B1 | 1.23 µM
8 | B2 | 1.09 µM
9 | B3 | 5 µM
10 | B4 | 3.2 µM
11 | B5 | 3.19 µM

What follows are binders tested against T2, beta-Catenin (full-length, Uniprot ID …) (assay: fluorescence polarization competition: peptide titrated against 10 nM full-length beta-catenin + 10 nM 5FAM-labeled TCF4 residues 10-53 probe).
Experimental: as §1

Row | Binder | IC50
12 | B7 | 2.85 µM
13 | B8 | 5 µM
14 | B9 | 5 µM
15 | B10 | 5 µM
16 | B11 | 5 µM
17 | B12 | 5 µM
18 | B13 | 5 µM
19 | B14 | 5 µM
